# Publication PMC9352680, “A comprehensive thermodynamic model for RNA binding by the Saccharomyces cerevisiae Pumilio protein PUF4”
# T1: PUF4 RNA-binding domain (Saccharomyces cerevisiae, UniProt P25339 537-888)
# T1 sequence: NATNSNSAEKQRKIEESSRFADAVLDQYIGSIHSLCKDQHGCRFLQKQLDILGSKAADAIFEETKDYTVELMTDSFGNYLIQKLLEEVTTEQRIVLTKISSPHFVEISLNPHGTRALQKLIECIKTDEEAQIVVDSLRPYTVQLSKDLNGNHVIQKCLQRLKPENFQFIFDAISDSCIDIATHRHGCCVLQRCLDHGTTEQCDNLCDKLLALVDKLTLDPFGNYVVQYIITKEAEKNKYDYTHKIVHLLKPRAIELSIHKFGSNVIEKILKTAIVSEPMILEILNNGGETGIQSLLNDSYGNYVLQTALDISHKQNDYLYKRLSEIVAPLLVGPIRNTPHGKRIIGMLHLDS
# Target: T1, PUF4 RNA-binding domain
# Experiment: Mg; RNA-MaP; 20 mM Na-HEPES pH 7.4, 30 mM KOAc, 0.75 mM MgCl2, 0.1% Tween-20, 5% glycerol, 0.1 mg/mL BSA, 2 mM DTT; 25 C; 0.0125-409.6 nM protein
# Conditions: tags: N-His6-TEV cleaved; C-SNAP kept, Cy3B-labelled; label: tethered on chip by stalled RNA polymerase
row,Binder,Kd
1,UCUCUUUGUAUACGAUCUCUU (ssRNA) [Ic_S1_P4E.1_K4.1_C4.1_H4.1_A4.1_[T7C]_F4.1_[T8G]_T4.1],42.1 nM
2,UCUCUUUGUAUUUAAUCUCUU (ssRNA) [Ic_S1_P4E.1_K4.1_C4.1_H4.1_A4.1_[A6T]_F4.1_[T8A]_T4.1],66.5 nM
3,UCUCUUUGUAUGUAAUCUCUU (ssRNA) [Ib_S1_P4E.1_K4.1_C4.1_H4.1_A4.1_[A6G]_F4.1_[T8A]_T4.1],94.6 nM
4,Ic_S4_P4E.1_K4.1_C4.1_H4.1_A4.1_[T5A]_[A6T]_[T7C]_F4.1_[T8G]_[A9G]_T4.1 (ssRNA) RNA: UUUGACAACUGAUCGUUCUUUCUUGUAAUCGGUUCUUUCUCGAUCAGUUGUCUUU,1920 nM
5,Ic_S4_P4E.1_K4.1_C4.1_H4.1_A4.1_[T5A]_[A6T]_[T7C]_F4.1_[T8A]_[A9C]_T4.1 (ssRNA) RNA: UUUGACAACUGAUCGUUCUUUCUUGUAAUCACUUCUUUCUCGAUCAGUUGUCUUU,1050 nM
6,Ic_S4_P4E.1_K4.1_C4.1_H4.1_A4.1_[T5A]_[A6T]_[T7A]_F4.1_[A9G]_T4.1 (ssRNA) RNA: UUUGACAACUGAUCGUUCUUUCUUGUAAUAUGUUCUUUCUCGAUCAGUUGUCUUU,21.6 nM
7,Ic_S4_P4E.1_K4.1_C4.1_H4.1_A4.1_[T5A]_[A6T]_[T7A]_F4.1_[T8A]_[A9C]_T4.1 (ssRNA) RNA: UUUGACAACUGAUCGUUCUUUCUUGUAAUAACUUCUUUCUCGAUCAGUUGUCUUU,314 nM
8,Ic_S4_P4E.1_K4.1_C4.1_H4.1_A4.1_[T5A]_[T7A]_F4.1_T4.1 (ssRNA) RNA: UUUGACAACUGAUCGUUCUUUCUUGUAAAAUAUUCUUUCUCGAUCAGUUGUCUUU,3.34 nM
9,Ic_S4_P4E.1_K4.1_C4.1_H4.1_A4.1_[T5A]_[A6T]_[T7A]_F4.1_[T8C]_[A9T]_T4.1 (ssRNA) RNA: UUUGACAACUGAUCGUUCUUUCUUGUAAUACUUUCUUUCUCGAUCAGUUGUCUUU,116 nM
10,Ic_S4_P4E.1_K4.1_C4.1_H4.1_A4.1_[A6G]_[T7C]_F4.1_[T8C]_[A9C]_T4.1 (ssRNA) RNA: UUUGACAACUGAUCGUUCUUUCUUGUAUGCCCUUCUUUCUCGAUCAGUUGUCUUU,558 nM
11,Ic_S4_P4E.1_K4.1_C4.1_H4.1_A4.1_[A6G]_[T7C]_F4.1_[T8G]_[A9C]_T4.1 (ssRNA) RNA: UUUGACAACUGAUCGUUCUUUCUUGUAUGCGCUUCUUUCUCGAUCAGUUGUCUUU,995 nM
12,Ic_S4_P4E.1_K4.1_C4.1_H4.1_A4.1_[T5A]_[T7C]_F4.1_[A9C]_T4.1 (ssRNA) RNA: UUUGACAACUGAUCGUUCUUUCUUGUAAACUCUUCUUUCUCGAUCAGUUGUCUUU,76.1 nM
13,Ic_S4_P4E.1_K4.1_C4.1_H4.1_A4.1_[T5A]_[T7C]_F4.1_[T8A]_[A9T]_T4.1 (ssRNA) RNA: UUUGACAACUGAUCGUUCUUUCUUGUAAACAUUUCUUUCUCGAUCAGUUGUCUUU,211 nM
14,Ic_S4_P4E.1_K4.1_C4.1_H4.1_A4.1_[T5A]_[A6T]_[T7A]_F4.1_[T8A]_T4.1 (ssRNA) RNA: UUUGACAACUGAUCGUUCUUUCUUGUAAUAAAUUCUUUCUCGAUCAGUUGUCUUU,144 nM
15,Ic_S4_P4E.1_K4.1_C4.1_H4.1_A4.1_[T5A]_[T7A]_F4.1_[T8A]_T4.1 (ssRNA) RNA: UUUGACAACUGAUCGUUCUUUCUUGUAAAAAAUUCUUUCUCGAUCAGUUGUCUUU,202 nM
16,Ic_S4_P4E.1_K4.1_C4.1_H4.1_A4.1_[A6G]_[T7G]_F4.1_[A9T]_T4.1 (ssRNA) RNA: UUUGACAACUGAUCGUUCUUUCUUGUAUGGUUUUCUUUCUCGAUCAGUUGUCUUU,292 nM
17,Ic_S4_P4E.1_K4.1_C4.1_H4.1_A4.1_[T5A]_[A6T]_F4.1_[T8A]_[A9T]_T4.1 (ssRNA) RNA: UUUGACAACUGAUCGUUCUUUCUUGUAAUUAUUUCUUUCUCGAUCAGUUGUCUUU,56.2 nM
18,Ic_S4_P4E.1_K4.1_C4.1_H4.1_A4.1_[A6G]_[T7G]_F4.1_[T8C]_[A9C]_T4.1 (ssRNA) RNA: UUUGACAACUGAUCGUUCUUUCUUGUAUGGCCUUCUUUCUCGAUCAGUUGUCUUU,1940 nM
19,Ic_S4_P4E.1_K4.1_C4.1_H4.1_A4.1_[T5A]_[A6T]_[T7C]_F4.1_[A9G]_T4.1 (ssRNA) RNA: UUUGACAACUGAUCGUUCUUUCUUGUAAUCUGUUCUUUCUCGAUCAGUUGUCUUU,41.6 nM
20,Ic_S4_P4E.1_K4.1_C4.1_H4.1_A4.1_[T5A]_[A6T]_F4.1_[T8A]_[A9G]_T4.1 (ssRNA) RNA: UUUGACAACUGAUCGUUCUUUCUUGUAAUUAGUUCUUUCUCGAUCAGUUGUCUUU,467 nM
21,Ic_S4_P4E.1_K4.1_C4.1_H4.1_A4.1_[T5A]_[A6T]_F4.1_T4.1 (ssRNA) RNA: UUUGACAACUGAUCGUUCUUUCUUGUAAUUUAUUCUUUCUCGAUCAGUUGUCUUU,2.38 nM
22,Ic_S4_P4E.1_K4.1_C4.1_H4.1_A4.1_[A6G]_[T7C]_F4.1_[T8A]_T4.1 (ssRNA) RNA: UUUGACAACUGAUCGUUCUUUCUUGUAUGCAAUUCUUUCUCGAUCAGUUGUCUUU,243 nM
23,Ic_S4_P4E.1_K4.1_C4.1_H4.1_A4.1_[T5A]_[A6T]_F4.1_[T8C]_T4.1 (ssRNA) RNA: UUUGACAACUGAUCGUUCUUUCUUGUAAUUCAUUCUUUCUCGAUCAGUUGUCUUU,205 nM

row,Binder,Kd
1,Ic_S4_P4E.1_K4.1_C4.1_H4.1_A4.1_[T5A]_F4.1_[T8A]_[A9G]_T4.1 (ssRNA) RNA: UUUGACAACUGAUCGUUCUUUCUUGUAAAUAGUUCUUUCUCGAUCAGUUGUCUUU,78.7 nM
2,Ic_S4_P4E.1_K4.1_C4.1_H4.1_A4.1_[T5A]_[T7A]_F4.1_[T8C]_[A9T]_T4.1 (ssRNA) RNA: UUUGACAACUGAUCGUUCUUUCUUGUAAAACUUUCUUUCUCGAUCAGUUGUCUUU,258 nM
3,Ic_S4_P4E.1_K4.1_C4.1_H4.1_A4.1_[T5A]_[T7A]_F4.1_[A9T]_T4.1 (ssRNA) RNA: UUUGACAACUGAUCGUUCUUUCUUGUAAAAUUUUCUUUCUCGAUCAGUUGUCUUU,65 nM
4,Ic_S4_P4E.1_K4.1_C4.1_H4.1_A4.1_[T5A]_[A6T]_[T7A]_F4.1_[T8C]_T4.1 (ssRNA) RNA: UUUGACAACUGAUCGUUCUUUCUUGUAAUACAUUCUUUCUCGAUCAGUUGUCUUU,555 nM
5,Ic_S4_P4E.1_K4.1_C4.1_H4.1_A4.1_[T5A]_[A6T]_[T7C]_F4.1_[T8C]_T4.1 (ssRNA) RNA: UUUGACAACUGAUCGUUCUUUCUUGUAAUCCAUUCUUUCUCGAUCAGUUGUCUUU,464 nM
6,Ic_S4_P4E.1_K4.1_C4.1_H4.1_A4.1_[T5A]_[T7C]_F4.1_[T8C]_[A9G]_T4.1 (ssRNA) RNA: UUUGACAACUGAUCGUUCUUUCUUGUAAACCGUUCUUUCUCGAUCAGUUGUCUUU,942 nM
7,Ic_S4_P4E.1_K4.1_C4.1_H4.1_A4.1_[T5A]_[A6T]_[T7C]_F4.1_[T8A]_[A9G]_T4.1 (ssRNA) RNA: UUUGACAACUGAUCGUUCUUUCUUGUAAUCAGUUCUUUCUCGAUCAGUUGUCUUU,1080 nM
8,Ic_S4_P4E.1_K4.1_C4.1_H4.1_A4.1_[T5A]_[A6T]_[T7C]_F4.1_[A9T]_T4.1 (ssRNA) RNA: UUUGACAACUGAUCGUUCUUUCUUGUAAUCUUUUCUUUCUCGAUCAGUUGUCUUU,34.8 nM
9,Ic_S4_P4E.1_K4.1_C4.1_H4.1_A4.1_[T5A]_[T7A]_F4.1_[A9G]_T4.1 (ssRNA) RNA: UUUGACAACUGAUCGUUCUUUCUUGUAAAAUGUUCUUUCUCGAUCAGUUGUCUUU,44.5 nM
10,Ic_S4_P4E.1_K4.1_C4.1_H4.1_A4.1_[A6G]_[T7C]_F4.1_[T8A]_[A9T]_T4.1 (ssRNA) RNA: UUUGACAACUGAUCGUUCUUUCUUGUAUGCAUUUCUUUCUCGAUCAGUUGUCUUU,108 nM
11,Ic_S4_P4E.1_K4.1_C4.1_H4.1_A4.1_[T5A]_[A6T]_[T7A]_F4.1_T4.1 (ssRNA) RNA: UUUGACAACUGAUCGUUCUUUCUUGUAAUAUAUUCUUUCUCGAUCAGUUGUCUUU,1.95 nM
12,Ic_S4_P4E.1_K4.1_C4.1_H4.1_A4.1_[T5A]_[A6T]_F4.1_[A9C]_T4.1 (ssRNA) RNA: UUUGACAACUGAUCGUUCUUUCUUGUAAUUUCUUCUUUCUCGAUCAGUUGUCUUU,64.3 nM
13,Ic_S4_P4E.1_K4.1_C4.1_H4.1_A4.1_[T5A]_[A6T]_[T7A]_F4.1_[A9C]_T4.1 (ssRNA) RNA: UUUGACAACUGAUCGUUCUUUCUUGUAAUAUCUUCUUUCUCGAUCAGUUGUCUUU,46.2 nM
14,Ic_S4_P4E.1_K4.1_C4.1_H4.1_A4.1_[A6G]_[T7C]_F4.1_[T8G]_[A9T]_T4.1 (ssRNA) RNA: UUUGACAACUGAUCGUUCUUUCUUGUAUGCGUUUCUUUCUCGAUCAGUUGUCUUU,261 nM
15,Ic_S4_P4E.1_K4.1_C4.1_H4.1_A4.1_[A6G]_[T7C]_F4.1_[T8C]_T4.1 (ssRNA) RNA: UUUGACAACUGAUCGUUCUUUCUUGUAUGCCAUUCUUUCUCGAUCAGUUGUCUUU,28.5 nM
16,Ic_S4_P4E.1_K4.1_C4.1_H4.1_A4.1_[T5A]_[T7C]_F4.1_[T8C]_[A9T]_T4.1 (ssRNA) RNA: UUUGACAACUGAUCGUUCUUUCUUGUAAACCUUUCUUUCUCGAUCAGUUGUCUUU,175 nM
17,Ic_S4_P4E.1_K4.1_C4.1_H4.1_A4.1_[T5A]_[T7C]_F4.1_[T8C]_[A9C]_T4.1 (ssRNA) RNA: UUUGACAACUGAUCGUUCUUUCUUGUAAACCCUUCUUUCUCGAUCAGUUGUCUUU,455 nM
18,Ic_S4_P4E.1_K4.1_C4.1_H4.1_A4.1_[T5A]_[T7C]_F4.1_[T8G]_[A9T]_T4.1 (ssRNA) RNA: UUUGACAACUGAUCGUUCUUUCUUGUAAACGUUUCUUUCUCGAUCAGUUGUCUUU,506 nM
19,Ic_S4_P4E.1_K4.1_C4.1_H4.1_A4.1_[T5A]_[T7C]_F4.1_[A9T]_T4.1 (ssRNA) RNA: UUUGACAACUGAUCGUUCUUUCUUGUAAACUUUUCUUUCUCGAUCAGUUGUCUUU,51.4 nM
20,Ic_S4_P4E.1_K4.1_C4.1_H4.1_A4.1_[T5A]_[A6T]_F4.1_[T8G]_[A9C]_T4.1 (ssRNA) RNA: UUUGACAACUGAUCGUUCUUUCUUGUAAUUGCUUCUUUCUCGAUCAGUUGUCUUU,421 nM
21,Ic_S4_P4E.1_K4.1_C4.1_H4.1_A4.1_[A6G]_[T7G]_F4.1_[T8C]_[A9T]_T4.1 (ssRNA) RNA: UUUGACAACUGAUCGUUCUUUCUUGUAUGGCUUUCUUUCUCGAUCAGUUGUCUUU,624 nM
22,Ic_S4_P4E.1_K4.1_C4.1_H4.1_A4.1_[A6G]_[T7G]_F4.1_[T8C]_[A9G]_T4.1 (ssRNA) RNA: UUUGACAACUGAUCGUUCUUUCUUGUAUGGCGUUCUUUCUCGAUCAGUUGUCUUU,> 2300 nM
23,UCUCUUUGUAUCUAAUCUCUU (ssRNA) [Ib_S1_P4E.1_K4.1_C4.1_H4.1_A4.1_[A6C]_F4.1_[T8A]_T4.1],49.3 nM
